Source: the supplement of paper PMC10567573

B1: CD69 (parent)
chain: FVAENSSLHPESGQENDATSPHFS
B2: ZNF8 (parent)
chain: RIHTGERPYMCKECGKAFSQNSSL

Variants of: B1
Experiment: protein stability index of a GFP-peptide fusion (GPS, HEK-293T) (PSI 1-6); higher = more stable
Details: c terminus: a fixed tail appended
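Note: lentivirally expressed fusions sorted by FACS into six bins by GFP to DsRed ratio, PSI derived from sequencing read proportions per bin multiplied by bin number.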

Protein stability index, by site and new letter:
S24: H 3.55; C 2.5; M 2.09; Y 2.38; G 3.13; D 3.9; T 3.27; I 2.19; N 2.92; A 3.55; K 2.91; E 3.75; R 1.77; F 2.27; P 2.57; L 3.04; V 2.77; Q 2.78
P21: S 2.98; V 2.52; E 3.97; F 2.91; I 2.65; A 2.62; L 2.33; W 2.9; G 3.04; H 2.46; C 2.64; K 3.25; Y 2.62; N 2.6; R 2.56; D 3.6; Q 3.15; M 2.56; T 2.86
T19: V 2.77; E 4.03; P 2.84; C 2.5; Q 3.16; W 2.75; A 3.35; D 3.75; I 3.16; N 2.9; M 2.73; L 2.6; F 1.97; K 2.37; R 2.92; G 3.24; S 2.84; H 3.19; Y 2.02
A18: W 2.24; Y 2.23; R 2.57; S 2.91; N 3.07; P 3.19; V 3.22; L 2.85; K 2.61; T 2.79; M 2.73; I 2.71; Q 3.53
S20: Q 3.15; P 2.54; F 2.32; V 2.68; D 4.01; A 3.16; I 3.02; C 2.78; K 2.71; H 2.5; M 2.78; N 2.71; W 2.09; R 2.45; T 3.12; G 3.17; E 3.75; L 3.02; Y 2.11
H22: V 3.54; R 3.18; Q 3.76; G 3.33; L 2.64; Y 1.72; I 2.45; K 3.24; P 3.19; C 2.65; M 2.71; S 2.86; W 2.72; F 1.66; N 3.21; D 3.79; T 3.11; A 3.21; E 3.82
F23: K 4.07; H 3.56; R 3.22; C 3.19; L 3.55; Y 3.09; W 2.02; Q 3.8; I 3.46; N 3.8; M 3.56; S 4.12; E 4.17; G 3.58; V 3.59; T 3.61; A 3.55; P 3.37; D 4.53

Variants of: B2
Experiment: as above
Details: c terminus: a fixed tail appended

Protein stability index of substitutions, site by site:
H3: A 1.99; C 3.28; D 2.91
R1: Y 2.2; S 3.19; D 2.71; I 2.77; W 2.27; T 3.22; H 3.56; E 2.87; N 2.85; C 4.88; K 3.01; P 3.17; A 2.93; Q 2.75; V 2.88; G 3.34; F 1.97; M 3.04; L 2.63
I2: S 2.75; L 2.35; M 2.44; A 2.41; G 2.78; W 2.33; Y 2.73; K 2.51; R 2.94; T 1.74; H 2.38; E 2.87; F 2.5; N 3.13; D 2.43; P 3.72; C 2.85; V 2.29; Q 3.57
